Measured values published in patent publication US20040219155A1.

Molecular target: Fc gamma receptor (Fc(γ)R) on dendritic cells
Test: cell-based or functional assay

- DC uptake of apoptotic tumor cells: 300%
Substance: monoclonal antibody 3G4 (ATCC PTA 4545)
